Experimental data reported in publication PMC11833081, “Biochemical analyses of cystatin-C dimers and cathepsin-B reveals a trypsin-driven feedback mechanism in acute pancreatitis” (Nature Communications, 2025).
Each block holds one molecule with its values, some of them ahead of it.

Key:
[1] = molecular target: trypsin-cleaved (truncated) recombinant murine cystatin C (mouse) (UniProt P21460); experiment: SEC; pH 4.0: 100 mM sodium acetate, 150 mM sodium chloride; 3 mg/mL protein kept at 4 °C overnight in the buffer; monomer to dimer ratio
[2] = molecular target: trypsin-cleaved (truncated) recombinant murine cystatin C (mouse) (UniProt P21460); experiment: SEC; pH 5.0 and 5.5 (100 mM sodium acetate, 150 mM NaCl) and pH 5.5, 6.0, 7.0, 8.0 (100 mM sodium phosphate, 150 mM NaCl); 3 mg/mL protein kept at 4 °C overnight in the buffer; monomer to dimer ratio
[3] = molecular target: recombinant murine cathepsin B, wild type, auto-activated (mouse)
[4] = molecular target: the molecule itself; experiment: SEC; Superdex 75 Increase 10/300 GL; running buffer 100 mM sodium acetate, 5 mM calcium chloride, 100 mM NaCl, pH 5.5; separation of monomer and dimer fractions

percent present as dimer [1]: 100% | percent present as dimer [2]: 70%
Molecule: trypsin-cleaved (truncated) recombinant murine cystatin C (from UniProt P21460 29-140) (domain or fragment)

CTSB activity at pH 5.5 (Arg-Arg-AMC) with the CST3 dimer fraction [3]: 3 fold
B1: murine cystatin C dimer (dimer fraction isolated by size exclusion chromatography) (complex)
chain: ATPKQGPRMLGAPEEADANEEGVRRALDFAVSEYNKGSNDAYHSRAIQVVRARKQLVAGVNYFLDVEMGRTTCTKSQTNLTDCPFHDQPHLMRKALCSFQIYSVPWKGTHSLTKFSCKNA

B2: recombinant murine cystatin C (CST3), full-length (not trypsin-treated) (natural protein, mouse, UniProt P21460 21-140, looked up)
chain: B1 chain
notes: cystatin C, mouse, synthetic gene ordered without the signal peptide; The preparation is a mixture of monomer and dimer; the monomer fraction isolated by SEC is called mCST3; also called mCST3 (monomer fraction); CST3 monomers; source: E. coli SHuffle T7 Express, purified (Ni-IDA; monomer fraction by SEC); not shown: His-tag, N-terminal, kept; TEV protease cleavage site, N-terminal, kept
stoichiometry N [4]: 2
